Measurements taken from patent US7740882B2, “Enhanced oral and transcompartmental delivery of therapeutic or diagnostic agents” (priority 2001, dated 2010).
Entries after “also recorded” stand apart in the source; their conditions may differ. Read-outs that look alike come from different tables or passages of the source.

B1: human sodium dependent multivitamin transporter, hSMVT (Homo sapiens) (protein)
chain: MSVGVSTSAPLSPTSGTSVGMSTFSIMDYVVFVLLLVLSLAIGLYHACRGWGRHTVGELLMADRKMGCLPVALSLLATFQSAVAILGVPSEIYRFGTQYWFLGCCYFLGLLIPAHIFIPVFYRLHLTSAYEYLELRFNKTVRVCGTVTFIFQMVIYMGVVLYAPSLALNAVTGFDLWLSVLALGIVCTVYTALGGLKAVIWTDVFQTLVMFLGQLAVIIVGSAKVGGLGRVWAVASQHGRISGFELDPDPFVRHTFWTLAFGGVFMMLSLYGVNQAQVQRYLSSRTEKAAVLSCYAVFPFQQVSLCVGCLIGLVMFAYYQEYPMSIQQAQAAPDQFVLYFVMDLLKGLPGLPGLFIACLFSGSLSTISSAFNSLATVTMEDLIRPWFPEFSEARAIMLSRGLAFGYGLLCLGMAYISSQMGPVLQAAISIFGMVGGPLLGLFCLGMFFPCANPPGAVVGLLAGLVMAFWIGIGSIVTSMGSSMPPSPSNGSSFSLPTNLTVATVTTLMPLTTFSKPTGLQRFYSLSYLWYSAHNSTTVIVVGLIVSLLTGRMRGRSLNPATIYPVLPKLLSLLPLSCQKRLHCRSYGQDHLDTGLFPEKPRNGVLGDSRDKEAMALDGTAYQGSSSTCILQETSL
B2: SMVT in BBMECs (Bos taurus) (protein)
chain: MSVGLSTATPLPPASDTDVVTSTFSLVDYVVFVLLLVLSLAIGLYHAYRGWGRHSIGQLLLADRKMGCLPVALSLLATFQSAVAILGVPSEIYRFGTQYWFLGCCYFLGLLIPAHVFIPIFYRLHITSAYEYLELRFNKAVRVCGTVTFIFQMVIYMGVVLYAPSLALNAVTGFDLWLSVLTLGIVCTIYTALGGLKAVIWTDVFQTLVMFLGQLAVIIVGSAKVGGLGHVWEVASQHGLISGIELDPDPFVRHTFWTLAFGGVFMMLSLYGVNQAQVQRYLSSRTEKAAVLSCYAVFPCQQVALSMGCLIGLVMFTYYQEYPMSTQQSQAAPDQFVLYFVMDLLRGLPGLPGLFVACLFSGSLSTISSAFNSLATVTMEDLIRPWFPHVSEVRATMLSRIIAFGYGLLCLGMAYISSQMGPVLQAAISIFGMVGGPLLGLFCLGMFFPCANPPGAIVGLLAGLIMAFWIGIGSIVTSMGSGRALSPPNGSSFSLSSNLTAVTMATLMPSTAASKPTGLQRLYSLSYLWYSAHNSTTVIVVGLAVSLLSGGMRGRTVDPRTIYPVLPKLLALLPLSCQKRLPCRAGSQDLSLEACMFPEKMSNGMLRGSRDQVDMAVPEEGPVQPGISPTFILQETSL

Tests used:
[1] = biological target: T1, SMVT in BBMECs (Bos taurus, UniProt A1L530); experiment: Biotin uptake by BBMECs (characterization of biotin transporter); format: in vitro ADME, bovine
T1 construct: endogenous in cells; host or cells: primary bovine brain microvessel endothelial cells (BBMECs)
T1 sequence (A1L530 1-638): B2 chain

[2] = biological target: T2, SMVT (Homo sapiens, UniProt Q9Y289); experiment: Inhibition of substrate uptake in CHO/hSMVT cells by 50 μM SMVT substrates; format: in vitro ADME; set-up: expressed in transfected cells; host or cells: CHO cells (ATCC), transient Lipofectamine transfection; plasmid was a gift of Dr. Puttur D. Prasad; conditions: for inhibition of RI-K(biotin)-Tat9 uptake: 0.1 μM RI-K(biotin)-Tat9, inhibitor 50 μM; for inhibition of biotin-PEG-3400 uptake: 0.1 μM biotin-PEG-3400, inhibitor 50 μM; for inhibition of PEG:(RI-K(biotin)-Tat9)8 uptake: 0.1 μM conjugate, inhibitor 50 μM
T2 sequence (Q9Y289 1-635): B1 chain

[3] = in vitro; conditions: human, Caco-2
Procedure: (§1) Caco-2 Cell Transport Studies An Ussing-type diffusion chamber system (Harvard Apparatus, Natick, Mass.) was used to perform transport studies. The apical solution was a MES Ringer's buffer (pH 6.5) consisting of 114.0 mM NaCl, 5.0 mM KCl, 1.1 mM MgSO4, 1.25 mM CaSO4, and 15 mM 2-(N-morpholino)ethanesulfonic acid (MES). The basolateral solution was a Ringer's buffer (pH 7.4) consisting of 114.0 mM NaCl, 5.0 mM KCl, 1.65 mM Na2HPO4, 0.3 mM NaH2PO4, 25 mM NaHCO3, 1.1 mM MgSO4, and 1.25 mM CaSO4. Both buffers contained 25 mM glucose and were adjusted to 290 mOsm/kg using a vapor pressure osmometer (Wescor Inc, Logan, Utah). For transport experiments using filters with cell monolayers, the inserts were rinsed with Ringer's buffet containing 25 mM glucose three times over a 20 min period at room temperature. The TEER was measured for each monolayer before it was mounted onto the diffusion chamber, which was pre-warmed to 37° C. by placement on the heating blocks. The volume of each half-chamber was 5 ml and the surface area of the Snapwell™ filters available for drug transport was 1 cm^2. […] The donor solution consisted of radiolabeled permeant in the apical buffer [apical (AP) to basolateral (BL) study]. Starting at 30 min, samples were taken from the receptor chamber every 15 min until the end of the experiment (105 min). A minimum of three monolayers was used to determine the permeability of test compound in each study and sample analysis was performed using scintillation counting (Perkin Elmer, Gaithersburg, Md.).
(§2) The Michaelis-Menten kinetic parameters of Caco-2 and CHO cell transport were then estimated using non-linear regression.
(§3) Prior to experimentation, diffusion chambers mounted with the Snapwells™ containing Caco-2 cells were equilibrated at 5° C., 10° C., 15° C., 25° C. and 37° C.
(§4) [formula] where Pe is the effective permeability of the substrate transported, Cs is the substrate concentration and Pm and Pc represent the passive and carrier-mediated component of the permeability. All data were initially fitted to a 3-parameter model (Pc, Pm, Km for Caco-2 studies, Jmax, Pm, Km for CHO studies).
(§5) Caco-2 Cell Transport Studies An Ussing-type diffusion chamber system (Harvard Apparatus, Natick, Mass.) was used to perform transport studies. The apical solution was a MES Ringer's buffer (pH 6.5) consisting of 114.0 mM NaCl, 5.0 mM KCl, 1.1 mM MgSO4, 1.25 mM CaSO4, and 15 mM 2-(N-morpholino)ethanesulfonic acid (MES). The basolateral solution was a Ringer's buffer (pH 7.4) consisting of 114.0 mM NaCl, 5.0 mM KCl, 1.65 mM Na2HPO4, 0.3 mM NaH2PO4, 25 mM NaHCO3, 1.1 mM MgSO4, and 1.25 mM CaSO4. Both buffers contained 25 mM glucose and were adjusted to 290 mOsm/kg using a vapor pressure osmometer (Wescor Inc, Logan, Utah). For transport experiments using filters with cell monolayers, the inserts were rinsed with Ringer's buffer containing 25 mM glucose three times over a 20 min period at room temperature. The TEER was measured for each monolayer before it was mounted onto the diffusion chamber, which was pre-warned to 37° C. by placement on the heating blocks.

[4] = test system: Caco-2 cell monolayers; experiment: Absorptive (AP to BL) transport across Caco-2 cell monolayers; conditions: Caco-2 AP to BL
Procedure: as §1, §2, §3, §4, §5

[5] = biological target: T3, fMLF receptor on differentiated HL-60 cells (Homo sapiens, UniProt P21462); experiment: Competitive receptor binding assay with fML[3H]F; conditions: for Avidity Activation EC50/Kd: ratio of EC50 (calcium) to Kd
T3 construct: endogenous in cells; host or cells: HL-60 cells differentiated with 1.3% DMSO for 48 h; whole cells
T3 sequence (P21462 1-350): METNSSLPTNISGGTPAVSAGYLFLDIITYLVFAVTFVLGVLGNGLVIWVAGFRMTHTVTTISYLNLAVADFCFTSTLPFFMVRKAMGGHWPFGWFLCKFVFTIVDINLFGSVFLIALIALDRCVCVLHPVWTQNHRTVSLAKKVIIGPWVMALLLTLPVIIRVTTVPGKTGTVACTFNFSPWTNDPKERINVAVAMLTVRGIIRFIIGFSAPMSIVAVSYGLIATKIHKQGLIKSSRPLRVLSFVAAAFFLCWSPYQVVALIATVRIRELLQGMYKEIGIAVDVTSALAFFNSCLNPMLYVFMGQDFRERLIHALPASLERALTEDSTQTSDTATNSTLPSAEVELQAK

[6] = test system: differentiated HL-60 cells; experiment: Intracellular calcium assay (45Ca release from intracellular stores); format: cell-based, human; conditions: for EC50: differentiated HL-60 cells, calcium release, read-out: Cell Activation EC50
Procedure: Intracellular Calcium Assay. HL-60 cells (2×10^5 cells/mL) were grown in the presence of 1.3% DMSO for 5 days. For each time course experiment, 2×10^6 cells were resuspended in 5 mL of HBSS containing 2 mCi/mL of ^45CaCl2 as the sole source of calcium. After 90 min incubation at 37° C., cells were washed twice as above with cold HBSS. […] Cell pellets were treated with 0.5% Triton X-100/0.1 M NaOH and centrifuged in tubes containing 0.3 mL of 10% sucrose and radioactivity associated with the pellets was measured; this represents vesicle-associated ^45Ca. The top portion of the tube, which contained the cytoplasmic ^45Ca was also measured.

[7] = substrate: O=C(O)CCCC[C@@H]1SC[C@@H]2NC(=O)N[C@@H]21; experiment: cells, lysate or membranes named; conditions: 37° C.
[8] = Kd multiplied by average number of fMLF moieties, read-out: Relative Avidity Kd/fMLP
[9] = differentiated HL-60 cells, competition with fML[3H]F, read-out: Avidity Kd

Molecule	inhibition of biotin uptake [1]	Kd [5, 8] [nM]	Kd [5, 9] [nM]	Avidity Activation EC50/Kd [5]	EC50 [6] [nM]	other results
C[C@@H]1NC(=O)N[C@@H]1CCCCCC(=O)O [desthiobiotin]	inhibited the uptake of biotin significantly					inhibition of RI-K(biotin)-Tat9 uptake [2]: significantly inhibited; also recorded: significantly lowered (p<0.001); inhibition of biotin-PEG-3400 uptake [2]: significantly (p<0.01) inhibited; inhibition of PEG:(RI-K(biotin)-Tat9)8 uptake [2]: significantly lower (p<0.05)
N[C@@H]1[C@H](CCCCC(=O)O)SC[C@@H]1N [diaminobiotin]	very weak					
N=C1N[C@H]2[C@H](CS[C@H]2CCCCC(=O)O)N1 [iminobiotin]	very weak					
OC[C@@H](O)[C@@H](O)[C@H](O)[C@H](O)CO [mannitol]						Papp A→B at 105 min [3]: 2.12 ×10⁻⁶ cm/s; absorptive/effective permeability (Pe) [4]: 1.42 (±0.28)×10^−6 cm/sec
CC(C)(CO)[C@@H](O)C(=O)NCCC(=O)O [pantothenic acid]	inhibited the uptake of biotin significantly					inhibition of RI-K(biotin)-Tat9 uptake [2]: significantly inhibited; inhibition of biotin-PEG-3400 uptake [2]: significantly (p<0.01) inhibited; inhibition of PEG:(RI-K(biotin)-Tat9)8 uptake [2]: significantly lower (p<0.05)
B3-PEG-fMLF3: 3-arm branched amino-PEG fully coupled with fMLF		5.7	1.9	5.05	9.6	
B4-PEG-fMLF4: 4-arm branched amino-PEG fully coupled with fMLF		3.2	0.8	6.25	5	
B8-PEG-fMLF1.1: 8-arm branched amino-PEG with on average 1.1 fMLF residues per polymer		209	190			calcium flux ([6]; even at 100 nM polymer): virtually no flux of calcium
B8-PEG-fMLF5.5: 8-arm branched amino-PEG with on average 5.5 fMLF residues per polymer		2.75	0.5	10.6	5.3	
B8-PEG-fMLF8: 8-arm branched amino-PEG with 8 fMLF residues per polymer		1.44	0.18	27.8	5	increase in avidity over B8-PEG-fMLF1.1 [5]: more than 1000 fold; fMLF receptors occupied ([5]; at 1 nM): ~100%; cellular activation ([6]; at 1 nM): little or no cellular activation
PEG/A-fMLF4: linear PEG-aspartate copolymer (29 kDa) with four fMLF residues		4.4	1.1			
B1						Km ([7]; other: uptake in CHO/hSMVT cells, 10 min, pH 7.5): 1.39 (0.59) μM
B2						Km ([7]; other: BBMECs): 54.6 µM
